Measured values reported in the FLAb antibody collection (doi:10.7554/elife.23156).

B1: scFv; the commonest letter at each place (parent)
chain 1: EVKLDETGGGLVQPGRPMKLSCVASGFTFSDYWMNWVRQSPEKGLEWVAQIRNKPYNYETYYSDSVKGRFTISRDDSKSSVYLQMNNLRVEDMGIYYCTGSYYGMDYWGQGTSVTVS
chain 2: DVVMTQTPLSLPVSLGDQASISCRSSQSLVHSNGNTYLRWYLQKPGQSPKVLIYKVSNRFSGVPDRFSGSGSGTDFTLKISRVEAEDLGVYFCSQSTHVPWTFGGGTKLEIK

Experiments:
fluorescein = variants of: B1; experiment: Kd (Tite-Seq); conditions: with fluorescein; format: scFv 4-4-20, heavy + light
[1] = variants of: B1; experiment: yeast surface expression (ratio to wild type); higher = more expressed; conditions: format: scFv 4-4-20, heavy + light

**Q.** Which results are given for chain 1 EVKLDETGGGLVQPGRPMKLSCVASGFTFSDLWMNWVRQSPEKGLEWVAQIRNKPYNYETYYSDSVKGRFTISRDDSKSSVYLQMNNLRVEDMGIYYCTGSYYGMDYWGQGTSVTVS chain 2 DVVMTQTPLSLPVSLGDQASISCRSSQSLVHSNGNTYLRWYLQKPGQSPKVLIYKVSNRFSGVPDRFSGSGSGTDFTLKISRVEAEDLGVYFCSQSTHVPWTFGGGTKLEIK [chain 1 Y32L]?
**A.** Kd (fluorescein): 435 nM; yeast surface expression [1]: 0.893

**Q.** What does the source list for chain 1 EVKLDETGGGLVQPGRPMKLSCVASGFTFSDYWMNWVRQSPEKGLEWVAQIRNKPYNYETYYSDSVKGRFTISRDDSKSSVYLQMNNLRVEDMGIYYCTGSIEGMDYWKQGTSVTVS chain 2 DVVMTQTPLSLPVSLGDQASISCRSSQSLVHSNGNTYLRWYLQKPGQSPKVLIYKVSNRFSGVPDRFSGSGSGTDFTLKISRVEAEDLGVYFCSQSTHVPWTFGGGTKLEIK [chain 1 Y102I Y103E G109K]?
**A.** Kd (fluorescein): ≥ 10000 nM; yeast surface expression [1]: 0.364

**Q.** Which Kd (fluorescein) does the source give for chain 1 EVKLDETGGGLVQPGRPMKLSCVASGFTFSDYWMNWVRQSPEKGLEWVAQIRNKPYNYETYYSDSVKGRFTISRDDSKSSVYLQMNNLRVEDMGIYYCTGSYYWMDYWGQGTSVTVS chain 2 DVVMTQTPLSLPVSLGDQASISCRSSQSLVHSNGNTYLRWYLQKPGQSPKVLIYKVSNRFSGVPDRFSGSGSGTDFTLKISRVEAEDLGVYFCSQSTHVPWTFGGGTKLEIK [chain 1 G104W] here?
**A.** ≥ 10000 nM

**Q.** And the yeast surface expression [1]?
**A.** 0.587

**Q.** What does the source list for chain 1 EVKLDETGGGLVQPGRPMKLSCVASGFTFSDYWMNWVRQSPEKGLEWVAQIRNKPYNYETYYSDSVKGRFTISRDDSKSSVYLQMNNLRVEDMGIYYCTGSYPGMDYWSQGTSVTVS chain 2 DVVMTQTPLSLPVSLGDQASISCRSSQSLVHSNGNTYLRWYLQKPGQSPKVLIYKVSNRFSGVPDRFSGSGSGTDFTLKISRVEAEDLGVYFCSQSTHVPWTFGGGTKLEIK [chain 1 Y103P G109S]?
**A.** Kd (fluorescein): ≥ 10000 nM; yeast surface expression [1]: 0.828

**Q.** Which Kd (fluorescein) does the source give for chain 1 EVKLDETGGGLVQPGRPMKLSCVASGFNFSDQWMNWVRQSPEKGLEWVAQIRNKPYNYETYYSDSVKGRFTISRDDSKSSVYLQMNNLRVEDMGIYYCTGSYYGMDYWGQGTSVTVS chain 2 DVVMTQTPLSLPVSLGDQASISCRSSQSLVHSNGNTYLRWYLQKPGQSPKVLIYKVSNRFSGVPDRFSGSGSGTDFTLKISRVEAEDLGVYFCSQSTHVPWTFGGGTKLEIK [chain 1 T28N Y32Q] here?
**A.** ≥ 10000 nM

**Q.** And the yeast surface expression [1]?
**A.** 1.04

**Q.** With chain 1 EVKLDETGGGLVQPGRPMKLSCVASGFTFGDYWRNWVRQSPEKGLEWVAQIRNKPYNYETYYSDSVKGRFTISRDDSKSSVYLQMNNLRVEDMGIYYCTGSYYGMDYWGQGTSVTVS chain 2 DVVMTQTPLSLPVSLGDQASISCRSSQSLVHSNGNTYLRWYLQKPGQSPKVLIYKVSNRFSGVPDRFSGSGSGTDFTLKISRVEAEDLGVYFCSQSTHVPWTFGGGTKLEIK [chain 1 S30G M34R] as the variant, how does the Kd (fluorescein) read?
**A.** 1.99 nM

**Q.** What does the source list for chain 1 EVKLDETGGGLVQPGRPMKLSCVASGFSASDYWMNWVRQSPEKGLEWVAQIRNKPYNYETYYSDSVKGRFTISRDDSKSSVYLQMNNLRVEDMGIYYCTGSYYGMDYWGQGTSVTVS chain 2 DVVMTQTPLSLPVSLGDQASISCRSSQSLVHSNGNTYLRWYLQKPGQSPKVLIYKVSNRFSGVPDRFSGSGSGTDFTLKISRVEAEDLGVYFCSQSTHVPWTFGGGTKLEIK [chain 1 T28S F29A]?
**A.** Kd (fluorescein): 62.4 nM; yeast surface expression [1]: 0.957

**Q.** For chain 1 EVKLDETGGGLVQPGRPMKLSCVASGFTFSDYWMNWVRQSPEKGLEWVAQIRNKPYNYETYYSDSVKGRFTISRDDSKSSVYLQMNNLRVEDMGIYYCTGSYYLGDFWGQGTSVTVS chain 2 DVVMTQTPLSLPVSLGDQASISCRSSQSLVHSNGNTYLRWYLQKPGQSPKVLIYKVSNRFSGVPDRFSGSGSGTDFTLKISRVEAEDLGVYFCSQSTHVPWTFGGGTKLEIK [chain 1 G104L M105G Y107F], which Kd (fluorescein) is on record?
**A.** ≥ 10000 nM

**Q.** What about the yeast surface expression [1] of the same variant?
**A.** 0.414

**Q.** Which results are given for chain 1 EVKLDETGGGLVQPGRPMKLSCVASGFTFSDYWMNWVRQSPEKGLEWVAQIRNKPYNYETYYSDSVKGRFTISRDDSKSSVYLQMNNLRVEDMGIYYCTCSAYGMDYWGQGTSVTVS chain 2 DVVMTQTPLSLPVSLGDQASISCRSSQSLVHSNGNTYLRWYLQKPGQSPKVLIYKVSNRFSGVPDRFSGSGSGTDFTLKISRVEAEDLGVYFCSQSTHVPWTFGGGTKLEIK [chain 1 G100C Y102A]?
**A.** Kd (fluorescein): 2.79 nM; yeast surface expression [1]: 1.47

**Q.** Which Kd (fluorescein) does the source give for chain 1 EVKLDETGGGLVQPGRPMKLSCVASGFTFLLYWMNWVRQSPEKGLEWVAQIRNKPYNYETYYSDSVKGRFTISRDDSKSSVYLQMNNLRVEDMGIYYCTGSYYGMDYWGQGTSVTVS chain 2 DVVMTQTPLSLPVSLGDQASISCRSSQSLVHSNGNTYLRWYLQKPGQSPKVLIYKVSNRFSGVPDRFSGSGSGTDFTLKISRVEAEDLGVYFCSQSTHVPWTFGGGTKLEIK [chain 1 S30L D31L] here?
**A.** ≥ 10000 nM

**Q.** What about the yeast surface expression [1] of the same variant?
**A.** 0.0981

**Q.** Which Kd (fluorescein) does the source give for chain 1 EVKLDETGGGLVQPGRPMKLSCVASGFTFFDYWMNDVRQSPEKGLEWVAQIRNKPYNYETYYSDSVKGRFTISRDDSKSSVYLQMNNLRVEDMGIYYCTGSYYGMDYWGQGTSVTVS chain 2 DVVMTQTPLSLPVSLGDQASISCRSSQSLVHSNGNTYLRWYLQKPGQSPKVLIYKVSNRFSGVPDRFSGSGSGTDFTLKISRVEAEDLGVYFCSQSTHVPWTFGGGTKLEIK [chain 1 S30F W36D] here?
**A.** ≥ 10000 nM

**Q.** And the yeast surface expression [1]?
**A.** 0.448

**Q.** Which Kd (fluorescein) does the source give for chain 1 EVKLDETGGGLVQPGRPMKLSCVASGFTFSDYWMNWVRQSPEKGLEWVAQIRNKPYNYETYYSDSVKGRFTISRDDSKSSVYLQMNNLRVEDMGIYYCTGSYYIMDYWKQGTSVTVS chain 2 DVVMTQTPLSLPVSLGDQASISCRSSQSLVHSNGNTYLRWYLQKPGQSPKVLIYKVSNRFSGVPDRFSGSGSGTDFTLKISRVEAEDLGVYFCSQSTHVPWTFGGGTKLEIK [chain 1 G104I G109K] here?
**A.** ≥ 10000 nM

**Q.** And the yeast surface expression [1]?
**A.** 0.246

**Q.** With chain 1 EVKLDETGGGLVQPGRPMKLSCVASGFTFSTGWMNWVRQSPEKGLEWVAQIRNKPYNYETYYSDSVKGRFTISRDDSKSSVYLQMNNLRVEDMGIYYCTGSYYGMDYWGQGTSVTVS chain 2 DVVMTQTPLSLPVSLGDQASISCRSSQSLVHSNGNTYLRWYLQKPGQSPKVLIYKVSNRFSGVPDRFSGSGSGTDFTLKISRVEAEDLGVYFCSQSTHVPWTFGGGTKLEIK [chain 1 D31T Y32G] as the variant, how does the Kd (fluorescein) read?
**A.** 39.1 nM

**Q.** What about the yeast surface expression [1] of the same variant?
**A.** 0.798
